Assay results reported in US20260365734 (published 2026).
Positions count from the first letter of the chain named.

T1: human VEGFA (human, UniProt P15692)
T1 chain: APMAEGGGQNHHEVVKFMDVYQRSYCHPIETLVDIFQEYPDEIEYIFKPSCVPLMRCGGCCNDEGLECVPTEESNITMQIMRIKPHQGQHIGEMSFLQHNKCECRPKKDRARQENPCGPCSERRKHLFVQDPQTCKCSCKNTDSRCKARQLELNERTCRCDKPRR

B1: 4D2-hv1-NT (antibody, V domains shown)
VH: QVQLVESGGGLVKPGGSLRLSCAASGFSASDVVMAWYRQAPGKQREFVANLGASSTTRYADSVKGRFTISRDNAKNSLYLQMNSLRAEDTAVYYCNALVWTGSSYNNWGQGTQVTVSS
B2: 4E2-hv2-NT (antibody, V domains shown)
VH: B1 VH with Q1E, S30G, A49S, L51I, G52A
B3: 5C12-hv7-NT (antibody, V domains shown)
VH: B1 VH with A49S, L51I, G52A, S54R, S55G, T56S, R58D
B4: 4E2-hv1-NT (antibody, V domains shown)
VH: B1 VH with Q1E, S30G, L51I, G52A
B5: 1F4-hv7-NT (antibody, V domains shown)
VH: B1 VH with L51I, G52A
B6: 3H1-hv7 (antibody, V domains shown)
VH: QVQLVESGGGVVQPGGSLRLSCAASGIDFSDTHMHWVRQAPGKQRELVAIITSGGSTDYVDSVKGRFTISRDNSKNTLYLQMNSLRAEDTAVYYCNARRSTIYWGQGTQVTVSS
B7: 3H1-6D2 (antibody, V domains shown)
VH: B6 VH with S30N, G54R, I102L
B8: 3H1-2G3 (antibody, V domains shown)
VH: B6 VH with G54S, Y103L
B9: 3H1-2A2 (antibody, V domains shown)
VH: B6 VH with S56F
B10: 3H1-1G9 (antibody, V domains shown)
VH: B6 VH with S30D, S56L, R99T
B11: 3H1-3B9 (antibody, V domains shown)
VH: B6 VH with S56F, R99T
B12: 3H1-2F4 (antibody, V domains shown)
VH: B6 VH with T32L, R99S
B13: 4E2-Alpaca-NT (antibody, V domains shown)
VH: EVQLVESGGGSVQDGGSLTLSCAASGFSAGDVVMAWYRQAPGKQREFVANIAASSTTRYTDSVKGRFTISRDNAKNTVYLQMNSLKSEDTAVYYCNALVWTGSSYNNWGQGTQVTVSS
B14: 4D2-hv2-NT (antibody, V domains shown)
VH: B1 VH with A49S
B15: 4D2-Alpaca-NT (antibody, V domains shown)
VH: B1 VH with K13Q, P14A, N73D, S77T, L78V, Y79S, R86K, A87S
B16: 4D2-hv3-NT (antibody, V domains shown)
VH: B1 VH with A49S, R58Y
B17: 4E2-hv3-NT (antibody, V domains shown)
VH: B1 VH with Q1E, S30G, A49S, L51I, G52A, R58Y
B18: 4D2-hv4-NT (antibody, V domains shown)
VH: B1 VH with A49S, R58N
B19: R3-2A11 (antibody, V domains shown)
VH: QVQLVESGGDLVQPGGSLRLSCAASGIDFSDTHMGWYRQAPGKQRELVALITSGGFTDYPDSVKGRFTISRDNAKNTMYLQMNTLKLEDTAVYYCNARRTTIYWGQGTQVTVSS
B20: R1-1C3 (antibody, V domains shown)
VH: B19 VH with Q1E, E6Q, D10G, D28F, Q44E, L50I, F56S, P60V, M78V, L87F
B21: R2-6A10 (antibody, V domains shown)
VH: B19 VH with D10G, Q44E, P60A, L87F, T100S
B22: R2-3A5 (antibody, V domains shown)
VH: B19 VH with Q1E, D10G, P60A
B23: R2-4E2 (antibody, V domains shown)
VH: B13 VH with T101N
B24: R2-4H8 (antibody, V domains shown)
VH: EVQLVESGGGLVQPGGSLRLSCGASGIFFSGVHMGWYRQAPGKERELVALITDSGSADYVDSVKGRFTISRDNAKNTVYLQMNSLKFEDTAVYYCNARTTTIYWGQGTQVTVSS
B25: R2-4D2 (antibody, V domains shown)
VH: B1 VH with K13Q, P14A, N73D, S77T, L78V, Y79S, R86K, A87S, T101N
B26: R2-1A3 (antibody, V domains shown)
VH: B19 VH with Q1E, D10G, A23V, I27F, G55A, P60A, M78V, L87F
B27: R2-1G4 (antibody, V domains shown)
VH: B19 VH with D10G, Q44E, P60A, L87F
B28: R2-1G10 (antibody, V domains shown)
VH: B24 VH with E1Q, G23A, G31D, V32T, L50I, D53S, S54G, A57T, T99R
B29: R2-6D2 (antibody, V domains shown)
VH: B19 VH with D10G, Q44E, P60A, L87F, R99K
B30: 4B11 (antibody, V domains shown)
VH: QVQLVESGGGVVQPGRSLRLSCAASGLSFSQYEMHWVRQAPGKEREFVAAISSSGISTYYADSVKGRFTISRDNSKNTLYLQMNSLRAEDTAVYYCAAELVDYHRWGYDYWGQGTLVTVSS
B31: 7H3 (antibody, V domains shown)
VH: QVQLVESGGGVVQPGRSLRLSCAASGFTFGPYAMHWVRQAPGKERELVAAIWPSGSITYYADSVKGRFTISRDNSKNTLYLQMNSLRAEDTAVYYCAFGSPTGSITYWGQGTLVTVSS
B32: 1G1 (antibody, V domains shown)
VH: QVQLVESGGGVVQPGRSLRLSCAASGLSFSYGTMAWVRQAPGKELELVAALSAGGTITYYADSVKGRFTISRDNSKNTLYLQMNSLRAEDTAVYYCAALGGYSGGSKYPYYDYWGQGTLVTVSS
B33: 1C8 (antibody, V domains shown)
VH: QVQLVESGGGVVQPGRSLRLSCAASGRSFSRYAMAWVRQAPGKERESVAVIGSGGGRTYYADSVKGRFTISRDNSKNTLYLQMNSLRAEDTAVYYCAARIYRVVGSGTYPAGYDYWGQGTLVTVSS
B34: 5F8-3A3 (antibody, V domains shown)
VH: B6 VH with Q1E, V11L, I27F, H35S, Q44E, S53G, N96L, S100T
B35: 5F8-8H3 (antibody, V domains shown)
VH: B6 VH with Q1E, V11L, I27F, D31M, H35S, Q44E, S56K, S100A
B36: 5F8-8E3 (antibody, V domains shown)
VH: B6 VH with Q1E, V11L, I27F, H35S, Q44E, R99L, S100T
B37: 5F8-6D6 (antibody, V domains shown)
VH: B6 VH with Q1E, V11L, I27F, H33A, H35S, Q44E, T57V, N96R, S100T
B38: 5F8-8D4 (antibody, V domains shown)
VH: B6 VH with Q1E, V11L, I27F, H33F, H35S, Q44E, S100T
B39: 5F8-7D5 (antibody, V domains shown)
VH: B6 VH with Q1E, V11L, I27F, S30E, H35S, Q44E, G55C, S100A
B40: 5F8-4B12 (antibody, V domains shown)
VH: B6 VH with Q1E, V11L, I27F, S30P, H35S, Q44E, S56F, N96R, S100T

The binders below were run against human PD-L1 ECD (human, UniProt Q9NZQ7) (assay: BLI).
human PD-L1 ECD, sequence (Q9NZQ7 19-238): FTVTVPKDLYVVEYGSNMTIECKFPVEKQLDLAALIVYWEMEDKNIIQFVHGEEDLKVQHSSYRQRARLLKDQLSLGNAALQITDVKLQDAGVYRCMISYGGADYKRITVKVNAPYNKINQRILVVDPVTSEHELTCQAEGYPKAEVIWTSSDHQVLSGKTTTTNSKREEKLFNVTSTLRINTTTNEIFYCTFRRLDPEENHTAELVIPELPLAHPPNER
B1 gave a Kd of 4540 pM. In the case of B2, the Kd is reported as 4750 pM. For B3, the Kd was 8120 pM. B4 was tested, and the Kd was 4640 pM. With B5 the Kd was 6390 pM.

These binders were tested against T2, mouse PD-L1 (cell surface) (mouse, UniProt Q9EP73) (assay: FACS, Hepa1-6 cells).
T2 sequence (Q9EP73 19-238): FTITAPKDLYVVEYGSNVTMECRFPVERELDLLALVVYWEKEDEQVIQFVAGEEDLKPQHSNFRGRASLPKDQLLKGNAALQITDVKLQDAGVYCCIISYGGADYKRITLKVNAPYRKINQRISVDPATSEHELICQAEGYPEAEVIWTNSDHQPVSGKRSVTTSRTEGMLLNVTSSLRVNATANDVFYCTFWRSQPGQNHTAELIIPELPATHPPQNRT
Binder B6 has an EC50 of 6780 pM. B7 showed an EC50 of 510 pM. Work on B8 yielded an EC50 of 310 pM. With B9 the EC50 was 310 pM. For B10, the EC50 was 550 pM. For B11, the EC50 was 300 pM. In the case of B12, the EC50 is reported as 650 pM.

Each binder was assayed against T3, human PD-L1 (cell surface) (human, UniProt Q9NZQ7) (assay: FACS, T24 cells).
T3 sequence (Q9NZQ7 19-238): as the sequence (Q9NZQ7 19-238) above
B1 was tested, and the EC50 was 43 pM. B2 gave an EC50 of 47 pM. B3 was tested, and the EC50 was 83 pM. In the case of B4, the EC50 is reported as 48 pM. B5 gave an EC50 of 47 pM.

These binders were tested against cynomolgus PD-L1 (cynomolgus) (assay: BLI).
cynomolgus PD-L1 (cynomolgus), sequence (chain, as listed by the source): as the sequence (Q9NZQ7 19-238) above, with A33T, A34S, S62N, R68Q, Q82R, F173L, T185A, T192I, H215L counted along it
With B1 the Kd was 3760 pM. With B2 the Kd was 3240 pM. Binder B3 has a Kd of 4340 pM. Work on B4 yielded a Kd of 3400 pM. Work on B5 yielded a Kd of 3870 pM.

These binders were tested against T3, human PD-L1 (cell surface) (assay: FACS, CHO-h-PD-L1 cells).
Binder B1 has an EC50 of 143 pM. In the case of B2, the EC50 is reported as 110 pM. In the case of B13, the EC50 is reported as 109 pM. In the case of B4, the EC50 is reported as 110 pM. Binder B14 has an EC50 of 203 pM. In the case of B5, the EC50 is reported as 130 pM. Binder B15 has an EC50 of 103 pM. B16 showed an EC50 of 598 pM. B17 gave an EC50 of 167 pM. For B18, the EC50 was 171 pM.

The binders below were run against T3, human PD-L1 (cell surface) (assay: FACS).
With B19 the EC50 was 1160 pM. B20 was tested, and the EC50 was 1690 pM. Work on B21 yielded an EC50 of 540 pM. B22 showed an EC50 of 600 pM. In the case of B23, the EC50 is reported as 148 pM. B24 gave an EC50 of 870 pM. B25 showed an EC50 of 202 pM. B26 showed an EC50 of 880 pM. With B27 the EC50 was 420 pM. B28 showed an EC50 of 630 pM. B29 was tested, and the EC50 was 930 pM.

Each binder was assayed against T2, mouse PD-L1 (cell surface) (assay: FACS, 293T m-PD-L1 cells).
For B6, the EC50 was 560 pM. With B7 the EC50 was 1290 pM. Binder B8 has an EC50 of 1570 pM. Work on B9 yielded an EC50 of 1420 pM. With B10 the EC50 was 1010 pM. For B11, the EC50 was 970 pM. B12 showed an EC50 of 1000 pM.

Target: T3, human PD-L1 (cell surface)
Test: FACS, T24 cells
Remark: another data set of the same source
B23 showed an EC50 of 50 pM. B25 was tested, and the EC50 was 41 pM.

Each binder was assayed against T3, human PD-L1 (cell surface) (assay: FACS, NCI-H441 cells).
B1 gave an EC50 of 65 pM. In the case of B2, the EC50 is reported as 54 pM. Work on B13 yielded an EC50 of 41 pM. Binder B4 has an EC50 of 39 pM. Binder B14 has an EC50 of 99 pM. With B5 the EC50 was 56 pM. For B15, the EC50 was 44 pM. With B16 the EC50 was 271 pM. B17 gave an EC50 of 55 pM. In the case of B18, the EC50 is reported as 112 pM.

Target: T1, human VEGFA
Test: BLI
Work on B30 yielded a Kd of 2820 pM. With B31 the Kd was 2080 pM. B32 gave a Kd of 14400 pM. For B33, the Kd was 2610 pM.

Target: T3, human PD-L1 (cell surface)
Test: FACS
Remark: another data set of the same source
For B34, the EC50 was 730 pM. B35 was tested, and the EC50 was 510 pM. B36 gave an EC50 of 570 pM. Work on B37 yielded an EC50 of 520 pM. With B38 the EC50 was 490 pM. Binder B39 has an EC50 of 510 pM. B40 showed an EC50 of 630 pM.
